Data reported in patent US20040043420A1, “Method of identifying conformation-sensitive binding peptides and uses thereof” (priority 2003, published 2004).

Legend:
ER β [1] = molecular target: ER β (Homo sapiens, UniProt Q92731); assay: Phage ELISA fingerprint: binding of peptide phage to immobilized ER β in the presence of modulators (Table 14B)
ER α [2] = molecular target: T1, ER α (UniProt P03372 1-595, limits assumed); assay: phage isolated on ERα-ERE; Raloxifen
T1 construct: also called estrogen receptor α; ERα-ERE
T1 sequence (looked up): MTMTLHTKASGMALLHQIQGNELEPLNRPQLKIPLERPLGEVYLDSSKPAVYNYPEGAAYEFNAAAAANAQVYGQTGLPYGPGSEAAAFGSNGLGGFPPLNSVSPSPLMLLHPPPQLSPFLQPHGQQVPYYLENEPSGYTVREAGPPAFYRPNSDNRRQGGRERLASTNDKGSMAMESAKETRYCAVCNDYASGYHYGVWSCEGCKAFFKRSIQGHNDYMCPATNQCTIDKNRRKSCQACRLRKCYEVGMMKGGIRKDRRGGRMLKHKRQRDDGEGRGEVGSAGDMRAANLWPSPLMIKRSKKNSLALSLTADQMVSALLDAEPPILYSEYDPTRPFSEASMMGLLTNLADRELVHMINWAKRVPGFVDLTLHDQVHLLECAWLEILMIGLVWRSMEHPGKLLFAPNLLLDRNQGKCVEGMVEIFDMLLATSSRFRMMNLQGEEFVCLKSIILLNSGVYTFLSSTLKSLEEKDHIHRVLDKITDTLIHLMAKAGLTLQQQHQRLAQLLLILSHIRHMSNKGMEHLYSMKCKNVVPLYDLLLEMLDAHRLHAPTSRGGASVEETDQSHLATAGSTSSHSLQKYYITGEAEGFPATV

ER α, P03372 [3] = molecular target: T2, ER α, P03372; assay: peptide probe binding to ERα, Buffer
T2 chain: T1 sequence (looked up)

ER α, P03372 [4] = molecular target: T2, ER α, P03372; assay: peptide probe binding to ERα, GW7604
ER α, P03372 [5] = molecular target: T2, ER α, P03372; assay: peptide probe binding to ERα, Estriol
ER α, P03372 [6] = molecular target: T2, ER α, P03372; assay: peptide probe binding to ERα, Clomiphene
ER α, P03372 [7] = molecular target: T2, ER α, P03372; assay: peptide probe binding to ERα, Nafoxidine
ER α, P03372 [8] = molecular target: T2, ER α, P03372; assay: peptide probe binding to ERα, Raloxifene
ER α, P03372 [9] = molecular target: T2, ER α, P03372; assay: peptide probe binding to ERα, ICI 182,780
ER α, P03372 [10] = molecular target: T2, ER α, P03372; assay: peptide probe binding to ERα, 17α-Estradiol
ER α, P03372 [11] = molecular target: T2, ER α, P03372; assay: peptide probe binding to ERα, 17β-Estradiol
ER α, P03372 [12] = molecular target: T2, ER α, P03372; assay: peptide probe binding to ERα, 4-OH Tamoxifen
ER α, P03372 [13] = molecular target: T2, ER α, P03372; assay: peptide probe binding to ERα, Diethylstilbesterol
ER β [14] = molecular target: T3, ER β (UniProt Q92731 1-530, limits assumed); assay: phage ELISA, ICI 182,780 1 µM
T3 construct: In vitro; also called estrogen receptor β; ERβ-ERE

ER α [15] = molecular target: T1, ER α; assay: phage isolated on ERα-ERE; Tamoxifen
[16] = molecular target: T4, Gal4 transcriptional activation domain (AD) fused in frame with AR (yeast, UniProt P10275 1-920, limits assumed); assay: cell-based or functional assay
T4 sequence (looked up): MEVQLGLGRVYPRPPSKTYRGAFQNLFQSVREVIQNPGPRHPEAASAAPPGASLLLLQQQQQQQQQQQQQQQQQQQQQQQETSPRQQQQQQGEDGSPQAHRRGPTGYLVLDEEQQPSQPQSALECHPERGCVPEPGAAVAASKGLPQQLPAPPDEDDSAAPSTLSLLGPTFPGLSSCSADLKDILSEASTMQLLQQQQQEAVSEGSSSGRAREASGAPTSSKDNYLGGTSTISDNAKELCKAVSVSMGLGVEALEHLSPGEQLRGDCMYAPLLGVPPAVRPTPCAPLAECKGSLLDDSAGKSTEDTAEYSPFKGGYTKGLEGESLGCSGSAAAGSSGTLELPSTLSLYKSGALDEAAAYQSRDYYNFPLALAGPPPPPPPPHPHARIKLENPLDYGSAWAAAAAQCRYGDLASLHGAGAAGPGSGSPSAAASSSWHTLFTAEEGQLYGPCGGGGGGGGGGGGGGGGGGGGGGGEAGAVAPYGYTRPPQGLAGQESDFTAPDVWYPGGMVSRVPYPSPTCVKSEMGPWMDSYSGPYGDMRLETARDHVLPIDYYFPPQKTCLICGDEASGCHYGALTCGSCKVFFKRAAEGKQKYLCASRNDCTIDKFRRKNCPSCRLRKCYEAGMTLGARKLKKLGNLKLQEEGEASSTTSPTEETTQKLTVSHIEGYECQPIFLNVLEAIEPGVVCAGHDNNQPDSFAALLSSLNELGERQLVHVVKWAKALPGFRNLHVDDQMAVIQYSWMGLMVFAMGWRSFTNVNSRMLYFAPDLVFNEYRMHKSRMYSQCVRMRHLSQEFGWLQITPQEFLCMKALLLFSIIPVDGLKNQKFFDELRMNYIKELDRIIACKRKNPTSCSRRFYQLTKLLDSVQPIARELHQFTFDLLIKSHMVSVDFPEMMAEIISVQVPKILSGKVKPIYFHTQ

[17] = molecular target: T4, Gal4 transcriptional activation domain …; assay: cell-based or functional assay; remark: listed apart in the source
ER β [18] = molecular target: T3, ER β; assay: peptide probe binding to ERβ, Estriol
ER β [19] = molecular target: T3, ER β; assay: peptide probe binding to ERβ, Clomiphene
ER β [20] = molecular target: T3, ER β; assay: peptide probe binding to ERβ, Raloxifene
ER β [21] = molecular target: T3, ER β; assay: peptide probe binding to ERβ, GW 7604
ER α [22] = molecular target: T1, ER α; assay: peptide probe binding to ERα, ICI 182,780
ER β [23] = molecular target: T3, ER β; assay: peptide probe binding to ERβ, 17β-Estradiol
ER α [24] = molecular target: T1, ER α; assay: peptide probe binding to ERα, 4-OH Tamoxifen
ER α [25] = molecular target: T1, ER α; assay: peptide probe binding to ERα, Diethylstilbesterol

T3 sequence (Q92731 whole entry): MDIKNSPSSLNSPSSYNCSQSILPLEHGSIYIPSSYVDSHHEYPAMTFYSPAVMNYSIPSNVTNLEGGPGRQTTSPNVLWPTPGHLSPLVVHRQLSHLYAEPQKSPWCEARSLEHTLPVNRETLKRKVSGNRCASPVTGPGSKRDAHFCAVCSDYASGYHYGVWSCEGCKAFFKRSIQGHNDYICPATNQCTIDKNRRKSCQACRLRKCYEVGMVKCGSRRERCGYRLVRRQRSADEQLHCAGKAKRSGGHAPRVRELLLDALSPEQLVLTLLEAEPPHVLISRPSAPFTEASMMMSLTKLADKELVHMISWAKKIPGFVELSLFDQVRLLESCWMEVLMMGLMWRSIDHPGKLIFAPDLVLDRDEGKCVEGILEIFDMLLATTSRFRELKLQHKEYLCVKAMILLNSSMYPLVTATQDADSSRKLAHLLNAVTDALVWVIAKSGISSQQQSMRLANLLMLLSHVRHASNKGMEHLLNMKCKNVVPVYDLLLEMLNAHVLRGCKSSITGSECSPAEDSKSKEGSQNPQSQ
ER β (Homo sapiens, UniProt Q92731), sequence (Q92731 whole entry, species assumed): as the sequence (Q92731 whole entry) above

In the case of SSNHQSSRLIELLSR [#4 ER./E2], the “Class Specific Fingerprint on ERβ: phage binding, 4-OH Tamoxifen present” value (ER β [1]; 4-OH tamoxifen 1 μM) is reported as 0, the “Class Specific Fingerprint on ERβ: phage binding, ICI 182,780 present” value (ER β [1]; ICI 182,780 1 μM) is reported as 0 and the “Class Specific Fingerprint on ERβ: phage binding, Clomiphene present” value (ER β [1]; clomiphene 10 μM) is reported as 0. For the same molecule, the “Class Specific Fingerprint on ERβ: phage binding, Raloxifene present” value (ER β [1]; raloxifene 1 μM) was 0.

For SRLPPSVFSMCGSEVCLSR [9Tβ], the “Class Specific Fingerprint on ERβ: phage binding, Nafoxidine present” value (ER β [1]; nafoxidine 10 μM) was 5.

SRLCFGDWCMLGGVDVLSR [1R]: binds (ER α [2]).

SSLTSRDFGSWYASR (modifications not checked) [phage 5 (Table 2)] gave an Equiv. (ER α, P03372 [3]) of 0%, an Equiv. (ER α, P03372 [4]) of 35% and an Equiv. (ER α, P03372 [5]) of 62%. It also gave an Equiv. (ER α, P03372 [6]) of 56%, an Equiv. (ER α, P03372 [7]) of 32% and an Equiv. (ER α, P03372 [8]) of 44%. For the same molecule, the Equiv. (ER α, P03372 [9]) was 56%, the Equiv. (ER α, P03372 [10]) was 80% and the Equiv. (ER α, P03372 [11]) was 100%. For the same molecule, the Equiv. (ER α, P03372 [12]) was 38% and the Equiv. (ER α, P03372 [13]) was 69%.

With SSLDLSQFPMTASFLRESR (also called β II; B2) [35E-β] the “phage ELISA grade” value (ER β [14]) was 0.

SRFEIWKPEPGCVSSLENWEPGKRVCSR [T2-10]: binds (ER α [15]).

B1: M7B1 (peptide)
chain: MKLLSSIEQACDICRLKKLKCSKEKPKCAKCLKNNWECRYSPKTKRSPLTRAHLTEVESRLERLEQLFLLIFPREDLDMILKMDSLQDIKALLTGLFVQDNVNKDAVTDRLASVETDMPLTLRQHRISATSSSEESSNKGQRQLTVSEFVGWFTGMAACSYAPDLDLQPS
For B1, the “Fold induction (yeast two-hybrid)” value [16] was greater than 2 fold, the “β-galactosidase activity (yeast two-hybrid), CPA” value [17] was 1.69 and the “β-galactosidase activity (yeast two-hybrid), DHT” value [17] was 3.93. The “β-galactosidase activity (yeast two-hybrid), MPA” value [17] was 6.9, the “β-galactosidase activity (yeast two-hybrid), No Lig” value [17] was 0 and the “β-galactosidase activity (yeast two-hybrid), RU” value [17] was 0.1. For the same molecule, the “β-galactosidase activity (yeast two-hybrid), Test” value [17] was 4.5.

SSLNMVVDTPWCGKWVCSR [2R]: binds (ER α [2]).

SRVFGVSGGEVVLINGSSR [T3-11]: binds (ER α [15]).

SSEACVGRWMLCEQLGVSR (also called β III; B3) [12B-β] showed an Equiv. (ER β [18]) of 77%, an Equiv. (ER β [19]) of -61% and an Equiv. (ER β [20]) of -71%.

SSWDMHQFFWEGVSR (also called AB3) [α/β III] was tested, and the Equiv. (ER β [18]) was -57%, the Equiv. (ER β [21]) was -86% and the Equiv. (ER β [19]) was 34%. For the same molecule, the Equiv. (ER β [20]) was 77%, the Equiv. (ER α [22]) was -100% and the Equiv. (ER β [23]) was -71%. For the same molecule, the Equiv. (ER α [24]) was 100% and the Equiv. (ER α [25]) was -53%.

With SREWEDGFGGRWLSR (also called β I; B1) [4T-β] the “phage ELISA grade” value (ER β [14]) was 0, the Equiv. (ER β [19]) was -62% and the Equiv. (ER β [20]) was -53%.

SRTLQLDWGTLYSR [T3-1]: binds (ER α [15]).

B2: M4D1 (peptide)
chain: MKLLSSIEQACDICRLKKLKCSKEKPKCAKCLKNNWECRYSPKTKRSPLTRAHLTEVESRLERLEQLFLLIFPREDLDMILKMDSLQDIKALLTGLFVQDNVNKDAVTDRLASVETDMPLTLRQHRISATSSSEESSNKGQRQLTVSEFRFPFHEMVREWESMGLERVRYAEP
B2 was tested, and the “Fold induction (yeast two-hybrid)” value [16] was greater than 2 fold, the “β-galactosidase activity (yeast two-hybrid), CPA” value [17] was -0.0396 and the “β-galactosidase activity (yeast two-hybrid), DHT” value [17] was 0.395. For the same molecule, the “β-galactosidase activity (yeast two-hybrid), MPA” value [17] was 1.7, the “β-galactosidase activity (yeast two-hybrid), No Lig” value [17] was 0 and the “β-galactosidase activity (yeast two-hybrid), RU” value [17] was 0.1. The “β-galactosidase activity (yeast two-hybrid), Test” value [17] was 0.134.
